This data set deals with Smc5 (E1015Q);Smc6 (E1048Q);Nse1;Nse2;Nse3;Nse4 (Saccharomyces cerevisiae;Saccharomyces …, UniProt Q08204;Q12749;Q07913;P38632;Q05541;P43124 1-1093;1-1114;1-336;1-267;1-303;1-402, E1015Q|E1048Q||||). Briefly: cryo-EM structure (3.8 A); 1 mM ATP, 2 mM MgCl2; 0.3 mg/mL complex, 1.5 uM DNA; Cryo-EM sample: 1 mM ATP, 2 mM MgCl2, 1.5 uM dsDNA, 4 C, 2 h; complex from size exclusion in 25 mM Hepes pH 7.5, 250 mM NaCl, 1 mM DTT (final binding buffer not stated). The conditions noted are these: protein: recombinant;recombinant;recombinant;recombinant;recombinant;recombinant; copies: 1;1;1;1;1;1; blunt.

The record followed here is paper PMC9191643, “Cryo-EM structure of DNA-bound Smc5/6 reveals DNA clamping enabled by multi-subunit conformational changes”.

B1: cryo-EM dsDNA (dsDNA)
DNA 1: TGGTTTTTATATGTTTTGTTATGTATTGTTTATTTTCCCTTTAATTTTAGGATATGAAAACAAGAATTTATC
DNA 2: GATAAATTCTTGTTTTCATATCCTAAAATTAAAGGGAAAATAAACAATACATAACAAAACATATAAAAACCA
For B1, the binding result is on record as “binds”.
